By Ki is commonly meant the equilibrium dissociation constant of an inhibitor or competing ligand from its target. In general, Km refers to the concentration of substrate that gives half-maximal velocity.

Data set [1] deals with T1, 5-enol-pyruvyl-shikimate-3-phosphate synthase (AtEPSPS) (Arabidopsis thaliana, UniProt P05466).
T1 construct: gene At2g45300; residues 77-520 (starts from Lys77, preceded by Ser-Asn-Ala)
T1 sequence (P05466 77-520): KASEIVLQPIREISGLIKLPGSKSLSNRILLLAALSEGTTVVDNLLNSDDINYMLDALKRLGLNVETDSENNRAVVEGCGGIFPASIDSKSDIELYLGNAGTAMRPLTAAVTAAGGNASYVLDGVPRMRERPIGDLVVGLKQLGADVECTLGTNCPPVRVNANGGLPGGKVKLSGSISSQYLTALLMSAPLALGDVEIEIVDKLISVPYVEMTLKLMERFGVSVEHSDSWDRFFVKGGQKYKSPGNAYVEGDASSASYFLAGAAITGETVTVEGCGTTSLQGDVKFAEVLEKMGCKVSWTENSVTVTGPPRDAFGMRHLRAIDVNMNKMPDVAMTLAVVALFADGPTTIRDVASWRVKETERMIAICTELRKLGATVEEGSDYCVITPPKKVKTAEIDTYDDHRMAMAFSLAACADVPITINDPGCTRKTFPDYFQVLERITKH
Briefly: malachite green phosphate-release assay, Lineweaver-Burk analysis (Ki vs PEP about […]; Ki vs S3P about […]; IC50 about […]). It is filed as biochemical.

Substrate in data set [2]: O=C(O)C1=C[C@@H](OP(=O)(O)O)[C@@H](O)[C@H](O)C1
Put plainly: steady-state kinetics of the purified enzyme, KM(app), malachite green assay. It counts as biochemical, Arabidopsis thaliana.

Substrate in the data set “purified protein”: C=C(OP(=O)(O)O)C(=O)O
Put plainly: purified protein. The conditions noted are these: glyphosate is competitive with respect to PEP.

Molecule `O=C(O)CNCP(=O)(O)O` [glyphosate, N-[phosphonomethyl]glycine] registered a Ki in data set [1] of approximately 1 µM.

B1: 5-enol-pyruvyl-shikimate-3-phosphate synthase (AtEPSPS) (Arabidopsis thaliana) (protein)
chain: KASEIVLQPIREISGLIKLPGSKSLSNRILLLAALSEGTTVVDNLLNSDDINYMLDALKRLGLNVETDSENNRAVVEGCGGIFPASIDSKSDIELYLGNAGTAMRPLTAAVTAAGGNASYVLDGVPRMRERPIGDLVVGLKQLGADVECTLGTNCPPVRVNANGGLPGGKVKLSGSISSQYLTALLMSAPLALGDVEIEIVDKLISVPYVEMTLKLMERFGVSVEHSDSWDRFFVKGGQKYKSPGNAYVEGDASSASYFLAGAAITGETVTVEGCGTTSLQGDVKFAEVLEKMGCKVSWTENSVTVTGPPRDAFGMRHLRAIDVNMNKMPDVAMTLAVVALFADGPTTIRDVASWRVKETERMIAICTELRKLGATVEEGSDYCVITPPKKVKTAEIDTYDDHRMAMAFSLAACADVPITINDPGCTRKTFPDYFQVLERITKH
notes: residues 77-520 (starts from Lys77, preceded by Ser-Asn-Ala)
As to B1, the Km in data set [2] was found to be 200 µM; in “purified protein”, 185 µM.

The values above are taken from publication PMC8983318, “Deciphering the structure of Arabidopsis thaliana 5-enol-pyruvyl-shikimate-3-phosphate synthase: An essential step toward the discovery of novel inhibitors to supersede glyphosate” (Computational and Structural Biotechnology Journal, 2022).
